The values that follow come from publication doi:10.1101/2021.04.07.438849 (bioRxiv, 2021).

The target in this assay is T1, SARS-CoV-2 Wuhan-Hu-1 S-HexaPro-D614G, displayed on HEK293T cells (SARS-CoV-2 Wuhan-Hu-1 with D614G …, UniProt A0A6N0C4S6, D614G).
T1 construct: also called WT (HexaPro-D614G); prefusion stabilized SARS-CoV-2 S D614G
The experiment in a line: flow cytometry on cells. The conditions noted are these: one partner purified. In general terms: In flow cytometry, cells or beads pass a laser one at a time.

B1: A7V3 IgG (antibody, V domains shown)
VH: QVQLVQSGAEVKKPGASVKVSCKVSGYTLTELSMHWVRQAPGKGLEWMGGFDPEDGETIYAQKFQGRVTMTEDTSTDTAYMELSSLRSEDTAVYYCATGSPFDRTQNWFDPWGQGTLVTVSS
VL: QSVVTQPPSVSAAPGQKVTISCSGSSSNIGNNYVSWYQQLPGTAPKLLIYDNNKRPSGIPDRFSGSKSGTSATLGITGLQTGDEADYYCGTWDSSLSAVVFGGGTKLTVL
notes: also called mAb A7V3
For the molecule B1, the binding result is listed as “binds”.
